Test results from US20240182536A1 (MURAL ONCOLOGY, published 2024).
Numbering of substitutions follows the chain as printed. Names may count otherwise. Where two headings read alike, the source gives them in different places.

What was measured:
[1] = target: T1, IL-18 receptors on HEK-Blue IL-18 reporter cells (UniProt Q13478 19-541; O95256 20-599, limits assumed); experiment: cell-based or functional assay
T1 sequence (looked up) 1: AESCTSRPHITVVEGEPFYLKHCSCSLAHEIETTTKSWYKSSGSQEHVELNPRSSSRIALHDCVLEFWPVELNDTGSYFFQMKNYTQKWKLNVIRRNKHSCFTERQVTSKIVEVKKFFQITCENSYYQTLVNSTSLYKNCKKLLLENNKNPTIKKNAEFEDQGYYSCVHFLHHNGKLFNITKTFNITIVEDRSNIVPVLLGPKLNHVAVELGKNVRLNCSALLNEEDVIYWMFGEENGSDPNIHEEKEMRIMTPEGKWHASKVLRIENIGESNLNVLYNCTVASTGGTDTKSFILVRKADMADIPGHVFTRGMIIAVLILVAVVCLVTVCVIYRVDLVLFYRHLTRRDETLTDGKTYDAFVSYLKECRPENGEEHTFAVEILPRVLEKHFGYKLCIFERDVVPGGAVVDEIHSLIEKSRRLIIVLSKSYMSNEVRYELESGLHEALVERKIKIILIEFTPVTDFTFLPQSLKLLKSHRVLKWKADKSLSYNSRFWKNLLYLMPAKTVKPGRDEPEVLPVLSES
T1 sequence (looked up) 2: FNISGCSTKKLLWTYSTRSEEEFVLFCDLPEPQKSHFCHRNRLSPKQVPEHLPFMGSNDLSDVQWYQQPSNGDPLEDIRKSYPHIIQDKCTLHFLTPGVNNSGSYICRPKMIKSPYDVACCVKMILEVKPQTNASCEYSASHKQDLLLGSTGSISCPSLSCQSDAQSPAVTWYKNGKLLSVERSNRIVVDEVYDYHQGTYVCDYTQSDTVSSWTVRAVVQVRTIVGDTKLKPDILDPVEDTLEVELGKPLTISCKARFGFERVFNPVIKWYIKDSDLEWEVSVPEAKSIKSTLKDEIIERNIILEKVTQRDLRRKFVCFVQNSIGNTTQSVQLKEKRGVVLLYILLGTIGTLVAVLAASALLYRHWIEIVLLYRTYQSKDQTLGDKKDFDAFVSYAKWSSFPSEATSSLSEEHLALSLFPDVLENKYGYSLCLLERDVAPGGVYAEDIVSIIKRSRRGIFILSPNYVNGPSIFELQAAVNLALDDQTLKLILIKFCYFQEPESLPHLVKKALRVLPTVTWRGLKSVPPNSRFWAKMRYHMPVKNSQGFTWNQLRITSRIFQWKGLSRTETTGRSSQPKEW

[2] = target: T2, interleukin 18 binding protein (IL-18BP) (UniProt O95998 31-194); experiment: cell-based or functional assay
T2 sequence (looked up): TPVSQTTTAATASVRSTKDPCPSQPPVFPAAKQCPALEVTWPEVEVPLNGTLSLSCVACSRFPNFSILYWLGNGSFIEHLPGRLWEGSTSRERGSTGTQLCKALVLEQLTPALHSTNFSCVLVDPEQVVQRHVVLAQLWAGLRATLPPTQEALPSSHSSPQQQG

[3] = target: T3, IL-18 receptors on HEK-Blue IL-18 reporter cells (InvivoGen) (UniProt Q13478 19-541; O95256 20-599); experiment: cell-based or functional assay
T3 sequence (looked up) 1: T1 sequence (looked up) 1
T3 sequence (looked up) 2: T1 sequence (looked up) 2

[4] = target: T4, human IL-18 binding protein (IL-18BP) (human, UniProt O95998 31-194); experiment: cell-based or functional assay
T4 sequence (looked up): T2 sequence (looked up)

[5] = target: T5, human IL-18R alpha/beta pair (IL-18Rab) (human, UniProt Q13478 19-329; O95256 20-356); experiment: Octet BLI
T5 construct: also called hu IL-18Rab
T5 sequence (looked up) 1: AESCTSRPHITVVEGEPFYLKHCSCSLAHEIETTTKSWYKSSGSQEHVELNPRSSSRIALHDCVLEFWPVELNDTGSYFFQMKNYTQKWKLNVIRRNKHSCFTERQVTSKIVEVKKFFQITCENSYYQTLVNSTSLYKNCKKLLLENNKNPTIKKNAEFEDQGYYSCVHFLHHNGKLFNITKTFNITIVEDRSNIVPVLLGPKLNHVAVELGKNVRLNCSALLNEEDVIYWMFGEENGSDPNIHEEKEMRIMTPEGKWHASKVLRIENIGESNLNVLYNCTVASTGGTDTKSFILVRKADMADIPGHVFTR
T5 sequence (looked up) 2: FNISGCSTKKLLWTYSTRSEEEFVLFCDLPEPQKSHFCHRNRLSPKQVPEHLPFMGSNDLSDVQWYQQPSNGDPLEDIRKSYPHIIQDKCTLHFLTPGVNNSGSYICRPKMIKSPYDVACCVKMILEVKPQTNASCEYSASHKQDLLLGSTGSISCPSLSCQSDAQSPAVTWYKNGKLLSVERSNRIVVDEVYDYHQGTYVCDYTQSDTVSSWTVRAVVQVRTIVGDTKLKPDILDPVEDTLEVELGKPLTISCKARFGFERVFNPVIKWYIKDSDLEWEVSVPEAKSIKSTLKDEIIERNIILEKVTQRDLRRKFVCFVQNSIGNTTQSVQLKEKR
Description: (§1) Octet 96red instrument was used to determine affinities of IL18 proteins to BP or receptors. 5-10 ug/ml analyte proteins were used for loading on Sartorius tips (AHC or SA). […] 120-180 s loading, 200 s association and 800 s dissociation were used for kinetics. 3-7 data points were used to calculate affinities.

[6] = target: T6, human IL-18 receptor alpha (IL-18Rα) (human, UniProt Q13478 19-329, limits assumed); experiment: Octet BLI
T6 construct: also called hu IL-18Ra; IL-18R alpha
T6 sequence (looked up): T5 sequence (looked up) 1
Description: as §1

[7] = target: T4, human IL-18 binding protein (IL-18BP); experiment: Octet BLI
Description: as §1

[8] = target: T3, IL-18 receptors on HEK-Blue IL-18 …; experiment: cell-based or functional assay; remark: listed apart in the source
[9] = target: T4, human IL-18 binding protein (IL-18BP); experiment: cell-based or functional assay; remark: listed apart in the source
[10] = target: T3, IL-18 receptors on HEK-Blue IL-18 …; experiment: cell-based or functional assay; remark: listed apart in the source
[11] = target: T4, human IL-18 binding protein (IL-18BP); experiment: cell-based or functional assay; remark: listed apart in the source
[12] = target: T7, IL-18 receptor (IL-18Rα and IL-18Rβ) (UniProt Q13478 19-541; O95256 20-599, limits assumed); experiment: cell-based or functional assay
T7 sequence (looked up) 1: T1 sequence (looked up) 1
T7 sequence (looked up) 2: T1 sequence (looked up) 2

[13] = target: T4, human IL-18 binding protein (IL-18BP); experiment: Octet BLI; remark: listed apart in the source
Description: as §1
Select G3/K53-substitution containing IL-18 variants and select G3/K53/N91-substitution containing TL-18 variants were tested for activity in the HEK-blue activity assay and for binding affinity to IL-18BP. As shown in the data of Table 15 and Table 16 below, each variant had similar or better activity than WT IL-18, and retained substantial activity in the presence of IL-18BP.

[14] = target: T3, IL-18 receptors on HEK-Blue IL-18 …; experiment: cell-based or functional assay; remark: listed apart in the source
[15] = target: T4, human IL-18 binding protein (IL-18BP); experiment: cell-based or functional assay; remark: listed apart in the source

B1: IL-18 variant K53S, S55G (ligand)
chain: YFGKLESKLSVIRNLNDQVLFIDQGNRPLFEDMTDSDMRDNAPRTIFIISMYSDGQPRGMAVTISVKSEKISTLSSENKIISFKEMNPPDNIKDTKSDIIFFQRSVPGHDNKMQFESSSYEGYFLASEKERDLFKLILKKEDELGDRSIMFTVQNED
B1 was tested, and the “HEK-blue EC50 (pM) - BP” value [1] was 33.4 pM, the “HEK-blue EC50 (pM) + 300 nM BP” value [2] was 103 pM and the Ratio [2] was 3.1.

B2: IL-18 variant K53H, S55V (ligand)
chain: B1 chain with S53H, G55V
For B2, the “HEK-blue EC50 (pM) - BP” value [1] was 45.5 pM, the “HEK-blue EC50 (pM) + 300 nM BP” value [2] was > 200 pM and the Ratio [2] was 10.1.

B3: IL-18 variant G3V, E6K, K53A (ligand)
chain: B1 chain with G3V, E6K, S53A, G55S
notes: also called G3V, K53A, E6K
With B3 the “HEK-Blue Activity Assay Ec50 (pM), -hu IL-18BP” value [3] was 0.02 pM, the “HEK-Blue Activity Assay Ec50 (pM), +300 nM hu IL-18BP” value [4] was 1.71 pM and the Kd [5] was 0.27 nM. For the same binder, the Kd [6] was 52 nM, the Kd [7] was 19 nM and the “HEK-Blue EC50 pM, NO BP (50 nM BP run)” value [8] was 0.04 pM. For the same binder, the “HEK-Blue EC50 pM, NO BP (300 nM BP run)” value [8] was 0.02 pM, the “Fold Change (BP/NO BP), 50 nM BP” value [9] was 8.67 fold and the “Fold Change (BP/NO BP), 300 nM BP” value [9] was 74.8 fold. The “HEK-Blue EC50 pM, +50 nM BP” value [9] was 0.33 pM and the “HEK-blue EC50 (pM) + 300 nM BP” value [9] was 1.71 pM.

B4: IL-18 variant G3T, E6K, K53A (ligand)
chain: B1 chain with G3T, E6K, S53A, G55S
notes: also called G3T, K53A, E6K
With B4 the “HEK-Blue Activity Assay Ec50 (pM), -hu IL-18BP” value [3] was 0.04 pM, the “HEK-Blue Activity Assay Ec50 (pM), +300 nM hu IL-18BP” value [4] was 1.49 pM and the Kd [5] was 0.32 nM. For the same binder, the Kd [6] was 10 nM, the Kd [7] was 6 nM and the “HEK-Blue EC50 pM, NO BP (50 nM BP run)” value [8] was 0.05 pM. For the same binder, the “HEK-Blue EC50 pM, NO BP (300 nM BP run)” value [8] was 0.04 pM, the “Fold Change (BP/NO BP), 50 nM BP” value [9] was 2.79 fold and the “Fold Change (BP/NO BP), 300 nM BP” value [9] was 35.2 fold. The “HEK-Blue EC50 pM, +50 nM BP” value [9] was 0.14 pM and the “HEK-blue EC50 (pM) + 300 nM BP” value [9] was 1.49 pM.

B5: IL-18 variant G3R, N91M, K53S (ligand)
chain: B1 chain with G3R, G55S, N91M
notes: also called G3R/K53S/N91M
In the case of B5, the “HEK-Blue Ec50 (pM), -IL-18BP” value [10] is reported as 0.12 pM, the “HEK-Blue Ec50 (pM), +IL-18BP (50 nM)” value [11] is reported as 2.16 pM and the “EC50 pM, IFN gamma expression in PBMCs” value [12] is reported as 73.9 pM. The Kd [13] was 3.3 nM, the koff [13] was 0.000735 s⁻¹ and the kon [13] was 223000 M⁻¹ s⁻¹.

B6: IL-18 variant G3R, N91W, K53A (ligand)
chain: B1 chain with G3R, S53A, G55S, N91W
notes: also called G3R/K53A/N91W
B6 was tested, and the “HEK-Blue Ec50 (pM), -IL-18BP” value [10] was 0.04 pM, the “HEK-Blue Ec50 (pM), +IL-18BP (50 nM)” value [11] was 4.22 pM and the “EC50 pM, IFN gamma expression in PBMCs” value [12] was 49.8 pM. For the same binder, the Kd [13] was 1 nM, the koff [13] was 0.000185 s⁻¹ and the kon [13] was 185000 M⁻¹ s⁻¹.

B7: IL-18 variant G3T, K53S (ligand)
chain: B1 chain with G3T, G55S
For B7, the “HEK-Blue Ec50 (pM), -IL-18BP” value [14] was 2.5 pM, the “HEK-Blue Ec50 (pM), +IL-18BP (50 nM)” value [15] was 5.18 pM and the “EC50 pM, IFN gamma expression in PBMCs” value [12] was 368 pM. For the same binder, the Kd [13] was 18 nM, the koff [13] was 0.00474 s⁻¹ and the kon [13] was 263000 M⁻¹ s⁻¹.
